The target of test [1] is T1, human PD-L1-Fc (R&D Systems) (human, UniProt Q9NZQ7 19-239).
T1 construct: Bought from R&D Systems; Biotinylated in-house for the phage selection; also called huPD-L1-Fc; human PD-L1-Fc antigen; not shown: Fc part of the bought fusion
Put plainly: soluble Affimer ELISA. On the technique in general: ELISA stands for enzyme-linked immunosorbent assay.

For test [2], the target named is T1, human PD-L1-Fc (R&D Systems). Put plainly: SPR (Biacore 8K), binding to PD-L1-Fc. (In general: SPR reads the build-up and loss of mass on a sensor chip optically.)

T1 sequence (Q9NZQ7 19-239 limits assumed): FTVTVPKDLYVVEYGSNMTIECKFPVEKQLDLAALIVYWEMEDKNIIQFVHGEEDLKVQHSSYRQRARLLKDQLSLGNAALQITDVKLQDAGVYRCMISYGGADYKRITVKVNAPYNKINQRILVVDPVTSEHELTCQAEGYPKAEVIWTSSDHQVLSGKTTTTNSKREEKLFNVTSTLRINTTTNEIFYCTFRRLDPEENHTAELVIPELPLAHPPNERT

B1: Clone 99 (designed binder)
chain: MIPGGLSEAKPATPEIQEIVDKVKPQLEEKTGETYGKLEAVQYKTQVDTWGERLHYPGTNYYIKVRAGDNKYMHLKVFKSLWHKPKDNIIEDLVLTGYQVDKNKDDELTGF
notes: His-tagged
For the molecule B1, the binding result in test [1] is reported as “binds”.

B2: Clone 98 (designed binder)
chain: MIPGGLSEAKPATPEIQEIVDKVKPQLEEKTGETYGKLEAVQYKTQVDWAIWRDKKVGTNYYIKVRAGDNKYMHLKVFKSLPIFEIVREGEDLVLTGYQVDKNKDDELTGF
notes: His-tagged
As for B2, the binding result in test [1] was “binds”.

B3: Clone 72 (designed binder)
chain: MIPGGLSEAKPATPEIQEIVDKVKPQLEEKTGETYGKLEAVQYKTQVVIHEPEIWWYGTNYYIKVRAGDNKYMHLKVFKSLHKADRQKEREDLVLTGYQVDKNKDDELTGF
notes: His-tagged
In the case of B3, in test [1], the binding result is reported as “binds”.

B4: Clone 87 (designed binder)
chain: MIPGGLSEAKPATPEIQEIVDKVKPQLEEKTGETYGKLEAVQYKTQVVKRLHLPQYPGTNYYIKVRAGDNKYMHLKVFKSLGNIEPITDLEDLVLTGYQVDKNKDDELTGF
notes: His-tagged
B4: the binding result in test [1] is recorded as “binds”.

B5: Clone 92 (designed binder)
chain: MIPGGLSEAKPATPEIQEIVDKVKPQLEEKTGETYGKLEAVQYKTQVDIDDDLWSGTNYYIKVRAGDNKYMHLKVFKSLILWPTKPEREDLVLTGYQVDKNKDDELTGF
notes: His-tagged
For the molecule B5, the binding result in test [1] is “binds”.

B6: Clone 74 (designed binder)
chain: MIPGGLSEAKPATPEIQEIVDKVKPQLEEKTGETYGKLEAVQYKTQVVRRWELWSFQGTNYYIKVRAGDNKYMHLKVFKSLWQEHTDSVEEDLVLTGYQVDKNKDDELTGF
notes: His-tagged
For B6, the binding result in test [1] was “binds”.

B7: Clone 83 (designed binder)
chain: MIPGGLSEAKPATPEIQEIVDKVKPQLEEKTGETYGKLEAVQYKTQVVIYHELWNFYGTNYYIKVRAGDNKYMHLKVFKSLDNNGDGNWQEDLVLTGYQVDKNKDDELTGF
notes: His-tagged
For the molecule B7, in test [1], the binding result is on record as “binds”.

B8: Clone 8 (designed binder)
chain: MIPGGLSEAKPATPEIQEIVDKVKPQLEEKTGETYGKLEAVQYKTQVVPLPDPIDWVGTNYYIKVRAGDNKYMHLKVFKSLHIHLNQIYREDLVLTGYQVDKNKDDELTGF
notes: His-tagged
In the case of B8, the binding result in test [1] was “binds”.

B9: Clone 71 (designed binder)
chain: MIPGGLSEAKPATPEIQEIVDKVKPQLEEKTGETYGKLEAVQYKTQVVASFPEISWYGTNYYIKVRAGDNKYMHLKVFKSLKNYPKTGVTEDLVLTGYQVDKNKDDELTGF
notes: His-tagged
For B9, in test [1], the binding result is on record as “binds”.

B10: Clone 90 (designed binder)
chain: MIPGGLSEAKPATPEIQEIVDKVKPQLEEKTGETYGKLEAVQYKTQVVLGWWFGINQGTNYYIKVRAGDNKYMHLKVFKSLAHLQYEWGGEDLVLTGYQVDKNKDDELTGF
notes: His-tagged
As to B10, the binding result in test [1] is listed as “binds”.

B11: Clone 75 (designed binder)
chain: MIPGGLSEAKPATPEIQEIVDKVKPQLEEKTGETYGKLEAVQYKTQVVINQHENFKQGTNYYIKVRAGDNKYMHLKVFKSLHLFHGLWYIEDLVLTGYQVDKNKDDELTGF
notes: His-tagged
In the case of B11, the binding result in test [1] is on record as “binds”.

B12: Clone 91 (designed binder)
chain: MIPGGLSEAKPATPEIQEIVDKVKPQLEEKTGETYGKLEAVQYKTQVVNQEHFRRFIGTNYYIKVRAGDNKYMHLKVFKSLNPWLHPQDFEDLVLTGYQVDKNKDDELTGF
notes: His-tagged
On to B12, for which the binding result in test [1] was “binds”.

B13: Clone 78 (designed binder)
chain: MIPGGLSEAKPATPEIQEIVDKVKPQLEEKTGETYGKLEAVQYKTQVVDQGWWENWAGTNYYIKVRAGDNKYMHLKVFKSLIWENNLRIHEDLVLTGYQVDKNKDDELTGF
notes: His-tagged
For the molecule B13, the binding result in test [1] is “binds”.

B14: Clone 97 (designed binder)
chain: MIPGGLSEAKPATPEIQEIVDKVKPQLEEKTGETYGKLEAVQYKTQVDELDDAVKYWGTNYYIKVRAGDNKYMHLKVFKSLWWKTISADFEDLVLTGYQVDKNKDDELTGF
notes: His-tagged
As to B14, in test [1], the binding result is “binds”.

B15: Clone 94 (designed binder)
chain: MIPGGLSEAKPATPEIQEIVDKVKPQLEEKTGETYGKLEAVQYKTQVDKVYLVWAWTGTNYYIKVRAGDNKYMHLKVFKSLFQKGSNKPEEDLVLTGYQVDKNKDDELTGF
notes: His-tagged
Consider B15, for which the binding result in test [1] is “binds”.

B16: Clone 93 (designed binder)
chain: MIPGGLSEAKPATPEIQEIVDKVKPQLEEKTGETYGKLEAVQYKTQVDQWGVDLVYTGTNYYIKVRAGDNKYMHLKVFKSLIVKRAVILWEDLVLTGYQVDKNKDDELTGF
notes: His-tagged
Turning to B16, the binding result in test [1] was “binds”.

B17: Clone 80 D82A (designed binder)
chain: MIPGGLSEAKPATPEIQEIVDKVKPQLEEKTGETYGKLEAVQYKTQVVRRKHFPQWPGTNYYIKVRAGDNKYMHLKVFKSLALQPREVFQEDLVLTGYQVDKNKDDELTGF
notes: alanine mutant of Clone 80 made in E. coli
Consider B17, for which binding in test [2] was characterised by a dissociation constant (Kd) of 5.08 nM.

B18: Clone 80 F53A (designed binder)
chain: MIPGGLSEAKPATPEIQEIVDKVKPQLEEKTGETYGKLEAVQYKTQVVRRKHAPQWPGTNYYIKVRAGDNKYMHLKVFKSLDLQPREVFQEDLVLTGYQVDKNKDDELTGF
notes: as for B17
Turning to B18, the binding result in test [2] is “no binding”.

B19: Clone 80 F89A (designed binder)
chain: MIPGGLSEAKPATPEIQEIVDKVKPQLEEKTGETYGKLEAVQYKTQVVRRKHFPQWPGTNYYIKVRAGDNKYMHLKVFKSLDLQPREVAQEDLVLTGYQVDKNKDDELTGF
notes: as for B17
The molecule B19 displayed a dissociation constant Kd in test [2] of 2.61 nM.

B20: Clone 70 (designed binder)
chain: MIPGGLSEAKPATPEIQEIVDKVKPQLEEKTGETYGKLEAVQYKTQVVIEEPSAFWWGTNYYIKVRAGDNKYMHLKVFKSLLRVRHSAYREDLVLTGYQVDKNKDDELTGF
notes: His-tagged
For B20, the binding result in test [1] is on record as “binds”.

B21: Clone 88 (designed binder)
chain: MIPGGLSEAKPATPEIQEIVDKVKPQLEEKTGETYGKLEAVQYKTQVVAVHAPQYAPGTNYYIKVRAGDNKYMHLKVFKSLWSEKVAVFPEDLVLTGYQVDKNKDDELTGF
notes: His-tagged
In the case of B21, the binding result in test [1] was “binds”.

B22: Clone 76 (designed binder)
chain: MIPGGLSEAKPATPEIQEIVDKVKPQLEEKTGETYGKLEAVQYKTQVVHDFTIRYPWGTNYYIKVRAGDNKYMHLKVFKSLEYHVTKRDQEDLVLTGYQVDKNKDDELTGF
notes: His-tagged
In the case of B22, the binding result in test [1] was “binds”.

B23: Clone 73 (designed binder)
chain: MIPGGLSEAKPATPEIQEIVDKVKPQLEEKTGETYGKLEAVQYKTQVVDWGWGIPWVGTNYYIKVRAGDNKYMHLKVFKSLWLYGVKRLPEDLVLTGYQVDKNKDDELTGF
notes: His-tagged
Consider B23, for which the binding result in test [1] is on record as “binds”.

B24: Clone 85 (designed binder)
chain: MIPGGLSEAKPATPEIQEIVDKVKPQLEEKTGETYGKLEAVQYKTQVVNDGKSLVLAGTNYYIKVRAGDNKYMHLKVFKSLRLWDDRVSGEDLVLTGYQVDKNKDDELTGF
notes: His-tagged
Consider B24, for which the binding result in test [1] is reported as “binds”.

As usually defined, the Kd is the free concentration of one partner at which half of the binding sites on the other are occupied at equilibrium, for simple one-to-one binding. Higher therefore signals weaker binding.
